In IntAct's records for PubMed 15192089:

B1: Tyrosine-protein phosphatase non-receptor type 2 (Homo sapiens), P17706-2 (parent)
chain: MPTTIEREFEELDTQRRWQPLYLEIRNESHDYPHRVAKFPENRNRNRYRDVSPYDHSRVKLQNAENDYINASLVDIEEAQRSYILTQGPLPNTCCHFWLMVWQQKTKAVVMLNRIVEKESVKCAQYWPTDDQEMLFKETGFSVKLLSEDVKSYYTVHLLQLENINSGETRTISHFHYTTWPDFGVPESPASFLNFLFKVRESGSLNPDHGPAVIHCSAGIGRSGTFSLVDTCLVLMEKGDDINIKQVLLNMRKYRMGLIQTPDQLRFSYMAIIEGAKCIKGDSSIQKRWKELSKEDLSPAFDHSPNKIMTEKYNGNRIGLEEEKLTGDRCTGLSSKMQDTMEENSESALRKRIREDRKATTAQKVQQMKQRLNENERKRKRPRLTDT
B2: Tyrosine-protein phosphatase non-receptor type 2 (Homo sapiens), P17706-1 (parent)
chain: MPTTIEREFEELDTQRRWQPLYLEIRNESHDYPHRVAKFPENRNRNRYRDVSPYDHSRVKLQNAENDYINASLVDIEEAQRSYILTQGPLPNTCCHFWLMVWQQKTKAVVMLNRIVEKESVKCAQYWPTDDQEMLFKETGFSVKLLSEDVKSYYTVHLLQLENINSGETRTISHFHYTTWPDFGVPESPASFLNFLFKVRESGSLNPDHGPAVIHCSAGIGRSGTFSLVDTCLVLMEKGDDINIKQVLLNMRKYRMGLIQTPDQLRFSYMAIIEGAKCIKGDSSIQKRWKELSKEDLSPAFDHSPNKIMTEKYNGNRIGLEEEKLTGDRCTGLSSKMQDTMEENSESALRKRIREDRKATTAQKVQQMKQRLNENERKRKRWLYWQPILTKMGFMSVILVGAFVGWTLFFQQNAL

Variants of: B1
Conditions: with insr_human INSR

effect of a mutation on the interaction | Variant
causing an interaction | D182A

Variants of: B2
Conditions: with insr_human INSR

effect of a mutation on the interaction | Variant
causing an interaction | D182A
